According to patent US10584169B2, “Anti-CD73 antibodies and uses thereof” (I-MAB BIOPHARMA US LIMITED, dated 2020):
Where two headings read alike, the source gives them in different places.

T1: Recombinant human CD73 protein (human)
T1 chain: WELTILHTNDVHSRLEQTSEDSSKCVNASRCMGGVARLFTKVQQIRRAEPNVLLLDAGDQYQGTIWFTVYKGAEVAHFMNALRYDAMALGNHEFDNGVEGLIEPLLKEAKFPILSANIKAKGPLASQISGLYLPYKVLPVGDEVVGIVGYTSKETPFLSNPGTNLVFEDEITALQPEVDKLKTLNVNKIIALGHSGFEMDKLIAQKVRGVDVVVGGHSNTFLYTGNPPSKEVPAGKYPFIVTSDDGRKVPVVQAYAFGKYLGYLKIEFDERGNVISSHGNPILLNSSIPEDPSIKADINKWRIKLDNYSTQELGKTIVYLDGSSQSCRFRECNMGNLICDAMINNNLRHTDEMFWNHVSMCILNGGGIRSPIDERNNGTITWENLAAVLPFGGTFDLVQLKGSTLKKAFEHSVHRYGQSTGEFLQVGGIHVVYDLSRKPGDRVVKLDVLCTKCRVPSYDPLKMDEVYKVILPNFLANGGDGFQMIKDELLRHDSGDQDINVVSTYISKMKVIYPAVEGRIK

T2: Human CD73 on the cell surface (human)
T2 chain: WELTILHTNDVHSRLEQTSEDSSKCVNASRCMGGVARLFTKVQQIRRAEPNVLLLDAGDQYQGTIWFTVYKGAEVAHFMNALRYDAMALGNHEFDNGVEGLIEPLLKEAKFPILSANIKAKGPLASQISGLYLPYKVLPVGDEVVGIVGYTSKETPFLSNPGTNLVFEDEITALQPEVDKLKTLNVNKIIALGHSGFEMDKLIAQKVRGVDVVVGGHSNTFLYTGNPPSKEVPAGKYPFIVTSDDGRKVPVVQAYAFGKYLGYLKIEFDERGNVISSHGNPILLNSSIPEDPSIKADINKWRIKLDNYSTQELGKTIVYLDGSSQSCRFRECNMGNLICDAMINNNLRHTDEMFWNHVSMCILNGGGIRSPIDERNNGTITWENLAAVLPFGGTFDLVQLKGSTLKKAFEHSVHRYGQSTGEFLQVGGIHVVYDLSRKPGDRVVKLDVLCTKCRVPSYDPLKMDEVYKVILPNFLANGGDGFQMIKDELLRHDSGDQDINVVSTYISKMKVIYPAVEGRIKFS


Key:
[1] = target: T1, Recombinant human CD73 protein
[2] = target: T1, Recombinant human CD73 protein; test: Biacore T200, antibody captured, recombinant human CD73 as analyte, 1:1 model
Procedure: FIG. 3 plots the binding kinetics of 101-Mu and mAb1 with recombinant human CD73 (recombinant human CD73 was set as an analyte with serial concentrations (100, 50, 25, 12.5, 6.25, 3.125 nM)). The binding kinetics assay of antibody to antigen was performed using Biacore T200 system through a human antibody capture approach. The […] were immobilized on CM5 sensor chip according to the manufactory's instruction. The test antibody was injected and captured by the immobilized anti-human Fc IgG. And then serial concentrations of the antigen was individually injected, and the binding profile was recorded for each concentration antigen analyte, respectively. The assay system was regenerated by injection of 10 mM Glycine-HCl pH 1.5 for 30 seconds. The running buffer was HBS-EP+ (10 mM HEPES, pH 7.4, 150 mM NaCl, 3 mM EDTA and 0.05% P20). The assay temperature was 25° C., and the association and dissociation time were 180 and 600 seconds, respectively.

[3] = target: T1, Recombinant human CD73 protein; test: ELISA, plate-coated recombinant human CD73
[4] = target: T2, Human CD73 on the cell surface
[5] = target: T2, Human CD73 on the cell surface; test: flow cytometry on SK-OV-3 cells
[6] = target: T1, Recombinant human CD73 protein
[7] = target: T2, Human CD73 on the cell surface
[8] = target: T2, Human CD73 on the cell surface; test: flow cytometry on SK-OV-3 cells
Procedure: Human ovarian cancer cell line (SK-OV-3 cells) which endogenously expressed human CD73 on the surface were stained with different concentrations of IgG control, chimeric anti-CD73 (101-Mu-Chimeric, or 101-Chi) and humanized anti-CD73 antibodies (Hu101-25 and Hu101-28) at […] for 30 mins. Then, the cells were washed with PBS three times, followed by incubation with APC-labeled anti-human Fc specific antibody (Invitrogen) at 4° C. for 30 mins. Binding was measured using an FACSCanto (Becton-Dickinson), and the results are presented in FIG. 8 (see also the table below).

[9] = target: T1, Recombinant human CD73 protein; test: Biacore T200, antibody captured by anti-human Fc IgG, antigen as analyte, 1:1 model
Procedure: For the binding assay, the Biacore T200 system was used through human antibody capture approach. The anti-human Fc IgG were immobilized on CM5 sensor chip according to the manufactory's instruction. The test antibody was injected and captured by the immobilized anti-human Fc IgG. And then serial concentrations of antigen was individually injected, and the binding profile was recorded for each concentration antigen analyte, respectively. The assay system was regenerated by injection of 10 mM Glycine-HCl pH 1.5 for 30 seconds. The running buffer was HBS-EP+ (10 mM HEPES, pH 7.4, 150 mM NaCl, 3 mM EDTA and 0.05% P20). The assay temperature was 25° C., and the association and dissociation time were 180 and 600 seconds, respectively.

[10] = target: T1, Recombinant human CD73 protein; test: ELISA with recombinant human CD73 (2 µg/ml)
[11] = target: T1, Recombinant human CD73 protein
[12] = target: T2, Human CD73 on the cell surface

Binder | IC50 of inhibition of CD73 enzymatic activity (CellTiter-Glo luminescence, residual CD73 activity) [1] | Kd [2] | koff [2] | kon [2] | EC50 [3] | IC50 of inhibition of cellular CD73 enzyme activity on SK-OV-3 cells (CellTiter-Glo luminescence) [4] | EC50 [5] | IC50 (nM), inhibition of recombinant human CD73 enzymatic activity [6] | Max. Inhibition (%), recombinant human CD73 enzymatic activity [6] | IC50 (nM), inhibition of cellular CD73 enzyme activity on SK-OV-3 cells [7] | Max. Inhibition (%), cellular CD73 enzyme activity on SK-OV-3 cells [7] | EC50 [8] | Kd [9] | koff [9] | kon [9] | EC50 [10] | IC50 of inhibition of recombinant human CD73 activity (CellTiter-Glo) [11] | IC50 of inhibition of cell-bound CD73 activity on MDA-MB-231 cells (CellTiter-Glo) [12] | IC50 of inhibition of cell-bound CD73 activity on SK-OV-3 cells (CellTiter-Glo) [12]
101-Mu (antibody, V domains shown) VH: DVQLQESGPGLVKPSQSLSLTCSVTGYSITSGYYWNWIRQFPGNKLEWMGYINYGGSNGYNPSLKSRISITRDTSKNQFFLKLNSVTTEDTATYYCARDYDAYYEALDDWGQGTSVTVSS VL: QIVLSQSPAILSASPGEKVTMTCRASSRVNYMHWYQQKPGSSPKPWISATSNLASGVPARFSGSGSGTSYSLTISRVETEDAATYYCQQWSSNPPTFGGGTKLEIK | 3.89 nM | 0.421 nM | 3.42e-05 s⁻¹ | 81300 M⁻¹ s⁻¹ | 0.08 nM | 4.62 nM | 0.54 nM |  |  |  |  |  |  |  |  |  |  |  | 
101-Mu chimera (antibody, V domains shown) VH: DVQLQESGPGLVKPSQSLSLTCSVTGYSITSGYYWNWIRQFPGNKLEWMGYINYGGSNGYNPSLKSRISITRDTSKNQFFLKLNSVTTEDTATYYCARDYDAYYEALDDWGQGTSVTVSS VL: QIVLSQSPAILSASPGEKVTMTCRASSRVNYMHWYQQKPGSSPKPWISATSNLASGVPARFSGSGSGTSYSLTISRVETEDAATYYCQQWSSNPPTFGGGTKLEIK |  |  |  |  |  |  |  | 4.25 nM | 98% | 1.82 nM | 100% | 1.35 nM |  |  |  |  |  |  | 
Hu101-25 (antibody, V domains shown) VH: EVQLQESGPGLVKPSETLSLTCAVSGYSISSGYYWNWIRQPPGKGLEWIGYINYGGSNGYNPSLKSRVTISRDTSKNQFSLKLSSVTAADTAVYYCARDYDAYYEALDDWGQGTTVTVSS VL: EIVLSQSPATLSLSPGERATLSCRASSRVNYMHWYQQKPGQSPRPWISATSNLASGVPARFSGSGSGTSYTLTISSLEPEDFAVYYCQQWSSNPPTFGGGTKVEIK |  |  |  |  |  |  |  | 4.72 nM | 99% | 2.98 nM | 100% | 2.38 nM | 0.747 nM | 5.51e-05 s⁻¹ | 73700 M⁻¹ s⁻¹ |  |  |  | 
Hu101-28 (antibody, V domains shown) VH: EVQLQESGPGLVKPSETLSLTCAVSGYSITSGYYWNWIRQPPGKKLEWMGYINYGGSNGYNPSLKSRITISRDTSKNQFSLKLSSVTAADTAVYYCARDYDAYYEALDDWGQGTTVTVSS VL: EIVLSQSPATLSLSPGERATLSCRASSRVNYMHWYQQKPGQSPRPWISATSNLASGVPARFSGSGSGTSYTLTISSLEPEDFAVYYCQQWSSNPPTFGGGTKVEIK |  |  |  |  |  |  | 0.67 nM | 9.35 nM | 98% | 2.52 nM | 100% | 1.35 nM |  |  |  | 0.0887 nM | 2.84 nM | 8.21 nM | 2.52 nM
